Test results from the RNAGym collection of RNA variant scans (doi:10.7554/elife.90254).

B1: LINE1-full (parent)
chain: UACGUAGGUGGUUUUCCCCUGAUAGUGCUAAGGGGGCCUGGAAGUUUGGACUGGGCAGAGCUCAACACAGCGUGGCAAAGUGGCUGUGGCUAGACUGCCUCUCUGGAUUCCUCGUCACUCAGCAGGGCAUCUCUGAGAGAAAUGCC

Variants of: B1
Test: self-cleavage, relative activity (ratio to wild type); higher = more cleavage; in vitro, sequencing; the parent is a self-cleaving ribozyme
UACGUAGGUGGUAUUCCCCUUAUAGUGCUAAGGGGGCCUGGAAGUUUGGACUGGGCAGAGCUCAACACAGCGUGGCAAAGUGGCUGUGGCUAGACUGCCUCUCUGGAUUCCUCGUCACUCAGCAGGGCAUCUCUGAGAGAAAUGCC gave a self-cleavage of 0.47.
Work on UACGUAGGUGGUUUUCCCCUGAUAGUGCUAAGGGGGCCUGGAAGUUUGGAUUGGGCAGAGCUCAACACAGCGUGGCAAAGUGGCUGUGGCUAGACUGCCUCUCUGGAUUCCUCGUCACUCAGCAGGGCAUCUCUGAGAGAACUGCC yielded a self-cleavage of 1.25.
For UACGUAGGUGGUUUUCCCCUGAUAGUGCUAAGGGGGCCUGGAAGUUUGGACUGGGCAAAGCUCAACACAGCGUGGCAAAGUGGCUGUGGCUAGACUGCCUCUCUGGAUUCCUCGUCUCUCAGCAGGGCAUCUCUGAGAGAAAUGCC, the self-cleavage was 0.05.
For UACGUAGGUGGUUUUCCCCUGAUAGUGCUAUGGGGGCCUGGAAGUUUGGACUGGGCAGAGCUCAACACAGCGUGGCAAAGUGGCAGUGGCUAGACUGCCUCUCUGGAUUCCUCGUCACUCAGCAGGGCAUCUCUGAGAGAAAUGCC, the self-cleavage was 0.07.
With UACGUAGGUGGUUUUCCCCUGAUAGUGCUAAGGGGGCCUGGAAGUUUGGACUGGGCAGAGCUCAACACAGCGUGGCAUAGUGGCUGUGGCUAGACUGCCUCUCUGGAUUCCUCGUCACUCAGCUGGGCAUCUCUGAGAGAAAUGCC the self-cleavage was 2.15.
Work on UACGUAGGUGGUUUUCCCCUGAUAGUGCUAAUGGGGCCUGGAAGUUUGGACUGGGCAGAGCUCAACACAGCGUGGCAAAGUGGCCGUGGCUAGACUGCCUCUCUGGAUUCCUCGUCACUCAGCAGGGCAUCUCUGAGAGAAAUGCC yielded a self-cleavage of 0.17.
CACGUAGGUGGUUUUCCCCUGAUAGUGCUAAGGGGGCCUGGAAGUUUGGACUGGGCAGAGCUCAACACAGCGUGGCAAAGUGGCUGUGGCCAGACUGCCUCUCUGGAUUCCUCGUCACUCAGCAGGGCAUCUCUGAGAGAAAUGCC gave a self-cleavage of 0.39.
UACGUAGGUGGUUUUCCCCUGAUAGUGCUAGGGGGGCCUGGAAGUUUGGACUGGGCAGAGCUCAACACAGCGUGGCAAAGUGGCUGUGGCUAGACUGCCUCUCUGGAUUCCUCGUCAUUCAGCAGGGCAUCUCUGAGAGAAAUGCC showed a self-cleavage of 1.73.
In the case of UACGUAGGUGGUUUUCCCCUGAUAGUGCUAAGGGGGCCUGGAAGUUUGGACUGGGCAGAGCUCAACACAGCGUGGCAAAGUGGCUGUGGCUAGACUGCCUCUCUGGAUACCCCGUCACUCAGCAGGGCAUCUCUGAGAGAAAUGCC, the self-cleavage is reported as 1.08.
For UACGUAGGCGGUUUUCCCCUGAUAGUGCUAAGGGGGCCUGGAAGUUUGGACUGGGCAGAGCUCAACACAGCGUGGCAAAGUGGCUGUGGCUAGACUGCCUCUCUGGAUUCCUCGUCACUCAGCAGGGCAUCUCUGAGAGAAAUGCC, the self-cleavage was 1.22.
Variant UACGUAGGUGGUUUUCCCCUGAUAGUGCUAAGGGGGCCUGGAAGUUUGGACCGGGCAGAGCUCAACACAGCGUGGCAAAGUGGCUGUGGCUAGACUGCCUCUCUGGAUUCCUCGUCACCCAGCAGGGCAUCUCUGAGAGAAAUGCC has a self-cleavage of 1.86.
With UACGUAGGUGGUUUUCCCCUGAUAGUGCUAAGGGGGCCUGGAAGUUUGGACUGGGCAGAGCUCAACACAGCGUGGCAAAGUGGCUGUGGCUAGGCUGCCUCUCUUGAUUCCUCGUCACUCAGCAGGGCAUCUCUGAGAGAAAUGCC the self-cleavage was 0.2.
For UACGUAGGUGGUUUUCCCCUGAUAGUGCUAAGAGGGCCUGGAAGUUUGGACUGGGCAGAGCUCAACACAGCGUGGUAAAGUGGCUGUGGCUAGACUGCCUCUCUGGAUUCCUCGUCACUCAGCAGGGCAUCUCUGAGAGAAAUGCC, the self-cleavage was 1.87.
Work on UACGUAGGUGGUUUUCCCCUGAUAGUGCUAAGGGGGCCUGGAAGUUUGGACUGGGCAGAGCUCAACACAGCGUGGCAAAGUGGCUGUGGCUAGACUGCCUCCCUGAAUUCCUCGUCACUCAGCAGGGCAUCUCUGAGAGAAAUGCC yielded a self-cleavage of 1.19.
UACGUAGGUGGUUUUCCCCUGAUAGUGCUAAGGGGGCCUGGAAGUUUGGACUGGGCAGAGCUCAACACAGCGAGGCAAAGUGGCUGUGGCUAGACUGCCUCUCUGGACUCCUCGUCACUCAGCAGGGCAUCUCUGAGAGAAAUGCC showed a self-cleavage of 2.23.
With UACGUAGGUGGUCUUCCCCUGAUAGUGCUAAGGGGGCCUGGAAGUUUGGGCUGGGCAGAGCUCAACACAGCGUGGCAAAGUGGCUGUGGCUAGACUGCCUCUCUGGAUUCCUCGUCACUCAGCAGGGCAUCUCUGAGAGAAAUGCC the self-cleavage was 0.63.
Variant CACGUAGGUGGUUUUCCCCUGAUAGUGCUAAGGGGGCCUGGAAGUUUGGACUGGGCAGAGCUCAACACAGCGUGGCAAAGUGGCUGUGGCUAGACUGCUUCUCUGGAUUCCUCGUCACUCAGCAGGGCAUCUCUGAGAGAAAUGCC has a self-cleavage of 0.24.
For UACGUAGGUGGUUUUCCCCUGAUAGUGCUAAGGGGGCCUGGAAGUUUGGACUGGGCAGAGCUCAACACAGCGUGGCAAUGUGGCUGUGGCUAGACUGCCUCUCUGGAUUCCUCGUCACUCAGCAGGGCAUCUCUGAGAGAUAUGCC, the self-cleavage was 2.36.
For UACGUAGGUGGUUUUCCCCUGAUAGUGCUAAGGGGGCCUGGAAGUUUGGACUGGGCAGAGCUCAACACAGCGUGGCAAAGUGGCUGUGGCUAGACUGCCUCUCUGGAUUCCUCGUCACUCAGCAGGGCAUCUCUGAGGGAAAAGCC, the self-cleavage was 1.45.
UACGUAGGCGGUUUUCCCCUGAUAGUGCUAAGGGGGCCUGGAAGUUUGGACUGGGCAAAGCUCAACACAGCGUGGCAAAGUGGCUGUGGCUAGACUGCCUCUCUGGAUUCCUCGUCACUCAGCAGGGCAUCUCUGAGAGAAAUGCC showed a self-cleavage of 0.04.
In the case of UACGUAGGUGGUUUUCCCCUGAUAGUGCUAAGGGGGCCUGGAAGUUUGGACUGGGCAGAGCUCAACACAGCGUGGCAAAGUGGCUGUGGCUAGACCGCCUCUCUGGAUUCCUCGUCACUCAGCAGGGCAUCUCUGAGGGAAAUGCC, the self-cleavage is reported as 0.2.
For UACGUAGGUGGUUUUCCCCUGAUAGUGCUAAGAGGGCCUGGAAGUUUGGACUGGGCAGAGCUCAACACAGCGUGGCAAAGUGGCUGUGGCUAGACUGCCUCACUGGAUUCCUCGUCACUCAGCAGGGCAUCUCUGAGAGAAAUGCC, the self-cleavage was 0.64.
For UACGUAGGUGGUUUUCCCCUGAUAGUGCUAAGGGGGCCAGGAAGUUUGGACUGGGCAGAGCUCAACACAGCGUGGCAAAGUGGCUGUGGCUAGACUGCCUCUCUGGAUUCCUCGUCACUCAGCAGGGCAUCUCUGAGAGUAAUGCC, the self-cleavage was 1.23.
Work on UACGUAGGUGGUUUUCCCCUGAUAGUGCUAAGGGGGCCUGGAAGUUUGGACUGGGCAGAGCUCAACACAGCGUGGCAAAGUGGCUGUGGCUAGACAGCCUCUCUGGAUUCCUCGUCACUCAGCAUGGCAUCUCUGAGAGAAAUGCC yielded a self-cleavage of 0.09.
In the case of UACGUAGGUGGUUUUCCCCUGAUAGUGCUAAGGGGGCCUGGAAGUCUGGACUGGGCAUAGCUCAACACAGCGUGGCAAAGUGGCUGUGGCUAGACUGCCUCUCUGGAUUCCUCGUCACUCAGCAGGGCAUCUCUGAGAGAAAUGCC, the self-cleavage is reported as 0.05.
UACGUAGGCGGUUUUCCCCUGAUAGUGCUAAGGGGGCCUGGAAGUUUGGACUGGACAGAGCUCAACACAGCGUGGCAAAGUGGCUGUGGCUAGACUGCCUCUCUGGAUUCCUCGUCACUCAGCAGGGCAUCUCUGAGAGAAAUGCC showed a self-cleavage of 0.48.
In the case of UACGCAGGUGGUUUUCCCCUGAUAGUGCUAAGGGGGCCUGGAAGUUUGGACUGGGCCGAGCUCAACACAGCGUGGCAAAGUGGCUGUGGCUAGACUGCCUCUCUGGAUUCCUCGUCACUCAGCAGGGCAUCUCUGAGAGAAAUGCC, the self-cleavage is reported as 0.49.
In the case of UACGUAGGUGGUUUUCCCCUGAUAGUGCUAUGGGGGCCUGGAAGUUUGGACUGGGCAGAGCUCAACACAGCGUGGCAAAGUGGCUGUGGCUAGACUGCCUCUCUGGAUUCCUCGUCACUCAGCAGGGCAUCUCCGAGAGAAAUGCC, the self-cleavage is reported as 1.2.
UACGUAGGUGGUUUUCCCCUGAUAGUGCUAAGGGGGCCUGGAAGUUUGGACUGGGCAGAGCUCAACACAGCGUGGCAAAGUGGCUGUGGCUAGUCUGCCUCUCUGGAUUCCUCGUCGCUCAGCAGGGCAUCUCUGAGAGAAAUGCC showed a self-cleavage of 0.38.
For UACGUAGGUGGUUUUCCCCUGAUAGUGCUAAGGGGGCCUGGAAGUUUGGACUGGGCAGAGCUCAACACAGCGUGGCAAAGGGGCUGUGGCUAGACUGCCUCUCUGGAUUCCUCGUCACUCAGCAGGGCAUCUCUGAGAGUAAUGCC, the self-cleavage was 1.35.
UACGUAGGUGGUUUUCCCCUGAUAGUGCUAAGGGGGCCUGGAAGUUUGGACUGGGCAGAGCUCAACACAGCGUGGCAAAGUGGCUGUGGCUAGACUGCCUCUCUGGAUCCCUCGUCACUCAGCAGGGCAUCUCCGAGAGAAAUGCC gave a self-cleavage of 1.21.
UACGUAGGUGGUUUUCCCCUGAUAGUGCUAAGGGGGCCUGGAAGUUUGGACUGGGCAGAGCUCAACACAGCGUGGCAAAGUGGCUGUGGCUAGAUUGCCUCUCUGGAUUCCUCGUCACUCAGCAGGGCAUCUCUGAGAGAGAUGCC gave a self-cleavage of 0.07.
Work on UACGUAGGUGGUUUUCCCCUGAUAGUGCUAAGGGGGCCUGGAAGUUUGGACUGGGCAGAGCUCAACACAGCGUGGCAAAGCGGCUGUGGCUAGACUGCCUCUCUGGAUUCCUCGUCACUCAGCAGUGCAUCUCUGAGAGAAAUGCC yielded a self-cleavage of 1.4.
UACGUAGGUGGUUUGCCCCUGAUAGUGCUAAGGGGGCCUGGAAGUUUGGACUGGGCAGAGCUCAACACAGCGUGGCAAAGUGGCUGUGGCUAGACUGCCUCUCUGGAUUCCUCGUCACUCAGCAGGGCAUCUCUGAGAGAGAUGCC gave a self-cleavage of 1.
UACGUAGGUGGUUUUCCCCUGAUAGUGCUAAGGGGGCCUGGAAGUUUGGACUGGGCAGAGCUUAACACAGCGGGGCAAAGUGGCUGUGGCUAGACUGCCUCUCUGGAUUCCUCGUCACUCAGCAGGGCAUCUCUGAGAGAAAUGCC gave a self-cleavage of 0.21.
In the case of UACGUAGGUGGUCUUCCCCUGAUAGUGCUAAGGGGGCCUGGAAGUUUGGACUGGGCAGAGCUCAACACAGCGUGGCAAAGUGGCUGUGGCUAGACUGCCUCUCUGGAUUCCUCAUCACUCAGCAGGGCAUCUCUGAGAGAAAUGCC, the self-cleavage is reported as 1.16.
For UACGUAGGUGGUUUUCCCCAGAUAGUGCUAAGGGGGCCUGGAAGUUUGGACUGGGCAGAGCUCAACACAGCGUGGCAAAGUGGCUGUGGCUAGACUGCCUCUCUGGAUUCCUCGCCACUCAGCAGGGCAUCUCUGAGAGAAAUGCC, the self-cleavage was 1.66.
For UACGUAGGUGGUUUACCCCUGAUAGUGCUAAGGGGGCCUGGAAGUAUGGACUGGGCAGAGCUCAACACAGCGUGGCAAAGUGGCUGUGGCUAGACUGCCUCUCUGGAUUCCUCGUCACUCAGCAGGGCAUCUCUGAGAGAAAUGCC, the self-cleavage was 0.71.
Variant UACGUAGGUGGUUUUCCCCUGAUAGUGCUAAGGGGGCCUGGAAGUUUGGACUGGGCAGAGCUCCACACAGCGUGGCAAAGUGGCUGUGGCUAGACUGCCUCUCUGGAUUCCCCGUCACUCAGCAGGGCAUCUCUGAGAGAAAUGCC has a self-cleavage of 0.29.
